Values of other authors in PMC3079273.
Read-outs that look alike come from different tables or passages of the source.

What was measured:
[1] = biological target: nitrate reductase (Arabidopsis thaliana) (UniProt P11035)
[2] = biological target: nitrate reductase (Arabidopsis thaliana) (UniProt P11035); remark: listed apart in the source
[3] = biological target: Glu1261 (UniProt position 1261, SKAVGEPPLFL); test: kinetics; settings: free oxidized enzyme reacting with free substrate (xanthine)

Chain of nitrate reductase (Arabidopsis thaliana) (P11035 whole entry): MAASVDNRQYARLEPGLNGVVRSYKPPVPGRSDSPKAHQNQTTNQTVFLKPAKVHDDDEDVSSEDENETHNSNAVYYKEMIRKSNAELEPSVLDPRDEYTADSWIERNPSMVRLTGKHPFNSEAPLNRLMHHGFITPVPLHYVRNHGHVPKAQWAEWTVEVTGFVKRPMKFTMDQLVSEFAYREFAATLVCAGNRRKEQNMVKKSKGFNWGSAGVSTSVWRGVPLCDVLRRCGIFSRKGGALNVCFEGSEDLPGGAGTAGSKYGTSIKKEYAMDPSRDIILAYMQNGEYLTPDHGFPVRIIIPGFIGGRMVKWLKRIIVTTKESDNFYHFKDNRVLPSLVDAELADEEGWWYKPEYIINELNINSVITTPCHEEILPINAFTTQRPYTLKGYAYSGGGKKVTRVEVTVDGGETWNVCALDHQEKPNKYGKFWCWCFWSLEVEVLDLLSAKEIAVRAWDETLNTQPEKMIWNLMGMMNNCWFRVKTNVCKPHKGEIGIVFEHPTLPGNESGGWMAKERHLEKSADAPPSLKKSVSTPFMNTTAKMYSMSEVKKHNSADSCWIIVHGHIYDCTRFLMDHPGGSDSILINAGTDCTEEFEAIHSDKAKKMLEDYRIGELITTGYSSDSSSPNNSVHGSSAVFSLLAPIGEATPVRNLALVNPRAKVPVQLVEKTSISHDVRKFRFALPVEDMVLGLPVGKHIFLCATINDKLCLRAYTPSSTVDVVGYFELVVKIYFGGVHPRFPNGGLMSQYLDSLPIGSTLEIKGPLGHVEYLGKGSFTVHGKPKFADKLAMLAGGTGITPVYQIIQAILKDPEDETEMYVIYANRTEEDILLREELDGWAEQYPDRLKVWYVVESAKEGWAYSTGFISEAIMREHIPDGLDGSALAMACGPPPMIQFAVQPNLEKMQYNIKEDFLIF
Chain of 14-3-3 lambda (P48349 whole entry): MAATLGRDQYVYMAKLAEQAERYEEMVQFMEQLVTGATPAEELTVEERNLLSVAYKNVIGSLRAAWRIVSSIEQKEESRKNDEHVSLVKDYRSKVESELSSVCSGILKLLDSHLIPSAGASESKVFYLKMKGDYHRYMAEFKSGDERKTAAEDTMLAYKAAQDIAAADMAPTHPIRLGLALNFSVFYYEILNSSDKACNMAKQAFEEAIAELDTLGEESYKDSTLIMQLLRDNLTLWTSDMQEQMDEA
Chain of 14-3-3 omega (Q01525 whole entry): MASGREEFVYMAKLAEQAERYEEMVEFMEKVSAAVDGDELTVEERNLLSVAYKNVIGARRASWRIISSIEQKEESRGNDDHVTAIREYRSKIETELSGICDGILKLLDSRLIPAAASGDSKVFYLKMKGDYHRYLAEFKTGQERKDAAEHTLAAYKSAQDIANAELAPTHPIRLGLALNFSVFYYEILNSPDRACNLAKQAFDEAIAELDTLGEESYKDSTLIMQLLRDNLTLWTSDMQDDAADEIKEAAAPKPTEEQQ

14-3-3 lambda (from UniProt P48349)
Ki [1]: 80 nM

14-3-3 omega (from UniProt Q01525)
Ki [2]: 60 nM

Xanthine oxidoreductase (xanthine oxidase / xanthine dehydrogenase) (Bos taurus)
pKa [3]: 6.6
